In the nanobody polyreactivity screen of Harvey et al. (2022):

Assay: yeast display, Sf9 membrane polyspecificity reagent, FACS + sequencing; frameworks hold sequencing errors
Method in brief: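 A nanobody's polyreactivity label depends on the gate it was sorted from. Yeast display cells were stained with 10% biotinylated, detergent-solubilized Sf9 membrane reagent for 1 hour at 4 °C, enriched on streptavidin microbeads and sorted by FACS. The low and high (top ~1%) gates were set on anti-HA fluorescence for expression and streptavidin fluorescence for reagent binding.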

| Sequence | polyreactivity (PSR sort gate) |
| --- | --- |
| QVQLVDSRGGLVQAGGSLRLICAASGSTFGRYARGWYRPEPGTERELVAAISWRGGSTFYADSVKGRFTISRDNAKNTVYLLMISLKPEDTAVYYCAAVSYGRPRMGYWGQGTQVTVSS | high polyreactivity |
| QVQLVDSRGGLVQAGGSLRLSCAASGFTFWYYAMGWYRQAPGKERELVAAITNGGGSKYYADSVKGRFTISRDNAKNTFYLQMNSLKPEDTAVFYCAKDGHSYYPWEYDYWGQGTQVTVSS | low polyreactivity |
| QVQLVDSVGGLVQAGGSLRLSCAASGFTFYYNAMGLYRQAPGKERELVAAITSSGGSTYYADSVKGRFTISRDNAKNTVYLQMNSLKPEDTAVYYCAAVVYYRGYTYNYWGQGTQVTVSS | high polyreactivity |
| QVQLVDSVGGLVQAGGSLRLSCAASGSIFGVYAKGWYRQAPGKERELVAAIDESGGSTFYADSVKGRFTISRDNAKNTVYLQMNSLKPEDTAVYYCLVFREDSGPGDYYYWGQGTQVTVSS | low polyreactivity |
| QVQLVDSVGGLVQAGGSLRLSCAASGSIFNPYDMGWSRQAPGKERELVAAIDWSGGSTYYADSVKGRFTISRDNAKNTVYLQMNSLKPEDTAVYYCNARPDYSISLPGYPTLSEDDEYWGQGTQVTVSS | low polyreactivity |
| QVQLVDSVGGLVQAGGSLRLSCAASGSIFWTYAMGWYRQAPGKERELVATITYSDGNTYYADSVKGRFTISRDNAKNTVYLQMHSLKPEDTAVYYCNADGIYASISGYRYDYWGQGTQVTVSS | low polyreactivity |
| QVQLVDSVVGLVQAGGSLRLSFAASGYTYHYYAMGWYRQAPGKETELVAAISGSGSSTYYADSVKGRFTISRDNAKNTVYLQMNSLKPEDTAVYYCNARGHYPRARFGYKSGSDRYWGQGTQVTVSS | high polyreactivity |
| QVQLVDSWGGLVQAGGSLRLSCAASGFIFPYNTMGWYRQAPGKERELVAAISSGGSTYYADSVKGRFTISRDNAKNTVYLQMNSLKPEDTAVYYCAVRGRRSPYGYWGQGTQVTVSS | high polyreactivity |
| QVQLVDTGGGIVQAGGSLRLSCAASGRTFFWNAMGWYRLAPGKERELVAAITWYGGSTYYADSVKGRFTISRDNAKNTVYLQMNSLKPEDSAVYYCAAVVSDYVWRYEYWGQGTQVTVSS | low polyreactivity |
| QVQLVDTGGGLVQAGGSLRFSCAASGSIFQVYAMGWYRQAPGKERELVASITSSGGSTYYADSVKGRFTISRDNAKNTVYLQMNSLKTEDTAVYYCADDQWSQDYDYWGQGTQVTVSS | low polyreactivity |
| QVQLVEAGGCLVQAGGSLRLSCAASGRIFRFYTMGWYRQAPGNERELVAAIRYSSVSTYYADSVKGRFTISRDNAKNTVYLQMNSLKPEDTAVYYCDAVHRSYVKTYNYWGLGTQVTVSS | high polyreactivity |
| QVQLVEAGGGLVQAGGSLRLSCAASGRIFVPYAMGWYRQAPGKEWELVAGISWSGGSTYYADSVKGRFTISRDNAKNTVYLQMNNLKPEDTPVYYCAAAKRRRPFDYWGQGTQVTVSS | high polyreactivity |
| QVQLVEAGGGLVQAGGSLRLSCAASGRIFYQNTMGWYIQAPGKERELVAAISKSGGRTYYADSVKGRFTISRDNAKNTVYLQMNSLKPEDTAVYYCDQGYASEMDYWGQVTQVTVSS | high polyreactivity |
| QVQLVEAGGGLVQAGGSLRLSCAASGSTFPYNARGWYSQAPGKDRELVAAMTSAGGTNYADSVKGRFTISRDNATNTVYLQMNSLKPEDTAVYYCAADGSGYYDWYYYWGQGTQVTVSS | low polyreactivity |
| QVQLVEAGGGLVQAGGSLRLSCAASGSTFVKNAMGWYRQAPGKERELVAAISYRGGRTYYADSVKRRFTISRDNAKNTVYLQMNSLKPEDTAVYYCAADASHLTGYEYWGQGTQGTVSS | high polyreactivity |
| QVQLVEAGGGLVQAGGSLRLSCAAYGRTFYTYAMGWYRQAPGKEREFVAAITWSGGSTYYADSVKGRFTISRDNAKNTVYLQMNSLKPEDPAVYYCAAGSRFRYSPGQSYEYGYWGQGTQVTVSS | low polyreactivity |

| Sequence | polyreactivity (PSR sort gate) |
| --- | --- |
| QVQLVEAGVCLVQSGGRLRLSCAATGFTFTSKVIGWSRQAPGKERELVADISASDGRTYYADSVKGRFRISRENAKNTVYLQMNRLKTEDTAVYYCAASLWVYVGQARYHWYDYWGQGTQVTVSS | low polyreactivity |
| QVQLVEEGGGLVQAGGTRRLSCAASGSTFTVYVMGWYRQAPGQERELVAAINLSGGRTYYADSVKGRFTISRDNAKNTVYLQMNSLKPEDTAVYYCAADGSTWGDYRTYGYWGQGTLVTVSS | low polyreactivity |
| QVQLVESAAGLVQAGASHRLSCAASARTFTVNAMGWYRQAPGKERELVAAISGRSGRTSYADSVKGRFTISRDNAKNTVYLQMNSLKQEVTAVYYCAADYYFYFTYPARFGYWGLGTQVTVSS | high polyreactivity |
| QVQLVESAAGLVQAGASLRLSCAPSGSIFSGNALGWSRQAPGKARELVAAISQNGGRTYYADSVKGRFTISRDYAKNTVYLQMNILKPDDTAVYYCAALAVRFYSSYDYWGQGTQVTVSS | high polyreactivity |
| QVQLVESAAGLVQAGGSLRLSCAPSGSTFPRYAMGWYRQAPGKERELVAAITKNGGYTYYADSVKGRFTISRDNAKNTVYLQMNSLKPEDTAVYYCAAERWYSCYRVGVSYDYWGQGTQVTVSS | high polyreactivity |
| QVQLVESAAGLVQAGGSLSLSCAASGFIFWRYAMGWYRQAPGKERELVAAISVSGTRTYYADSVKGRFTISRDNAKNTVYLQMNSLKPEDTAVYYCNAASRSFSSDRAFDYWGQGTQVTVSS | high polyreactivity |
| QVQLVESAGDLVQAGRTLRFSCAPSGSIFKPNAMGWYRQAPGKERELVDDISRSGTSTYYADSVKGRFTISRDIAKNTVYLQMNSLKPEDTAVFNCATRYSGDYGYWGQGTQVTVSS | high polyreactivity |
| QVQLVESAGGIVQAGGSLRLSFAASGSTFTRYAMGWYRPAPGKERELVAAIDGGGGSTSYADSVKGRFTISRDHAKNTVYLQMNSLKPEDTAVYYCAAPLDTSSRIFDYWGHGTQVTVSS | low polyreactivity |
| QVQLVESAGGLVHAGGSLRLSCAASGNIFRWYAMGWYRQAPGKDRELVAAISSGGRTNYADSVKGRFTISRDNALNSVFLQMNSLKPEDTAVFYWYIVAGVTGRFYFWGQGTQVTVSS | low polyreactivity |
| QVQLVESAGGLVQAGASLRLSCAASGFIFRYNTKGWYRQAPGKEMELVATINRSGGSTYYADSVKGRFTISRDNAKNTVYLQMNSLKPVDTAVYYCAAVSLQPYYNAGATWDGDYWGQGTQVTVSS | high polyreactivity |
| QVQLVESAGGLVQAGASLRLSCAASGLIYRKYSMGWYRQAPGKERELVAAISSGGDTNYADSVKGLFTISRDNAKNTVYLQMNSLKPEDTAVYYCNADRKYWYGIALEYWGQGTQVTVSS | high polyreactivity |
| QVQLVESAGGLVQAGGILRLSCAASGFTFYFYAMGWYRQSPGKERELVAAISRSGSRTYYADSVKGRFTISRDNAKNTVYLQMNSLKPEDTAVYYCARVRPRGLYFVLHYDYWGQGTQVTVSS | high polyreactivity |
| QVQLVESAGGLVQAGGRLLLSCAASGRIFAKYAMGWYRQAPGKERELVAAIRSTGGGTYYADSVKGRFTISRDNAKNTVYLQMNSLKPEDTAVYYCDARQTYYKYGYWGQGTQVTVSS | high polyreactivity |
| QVQLVESAGGLVQAGGSLRLICAASVFTFYYYTMGWYRPAPGKERELVAGISGTGGSTYYADSVKGRFTISRDNAKNTVYLQMNSLKPEDTAVYYCAAGPWYWGQGTQVTVSS | low polyreactivity |
| QVQLVESAGGLVQAGGSLRLRCAASGRIFTHNAMGWYRQAPGKERELVAAITSGGRTTYADSVKGRFTISRDNAKNTVYLQMNSLKPEDSAVYYCNADTGLGSLDFDKRDYWGQGTQVTVSS | low polyreactivity |
| QVQLVESAGGLVQAGGSLRLSCAASGAIFGGYAMGWYRQAPGKERELVAAISSSGGSTYFADSVKGRFTISRDNEKNTVYLQMNSLKPEDTAVYYCAAKYQRRYYYWGQGTQVTVSS | high polyreactivity |
